As usually defined, the Kd is the concentration at which binding is half-saturated. As usually defined, the koff is a measure of how fast the partners let go of each other. For orientation: kon means the second-order rate constant of association.

These results are taken from patent US20160244529A1 (ROTTAPHARM BIOTECH S R L, published 2016).

The target in assay [1] is T1, mouse Ig1,2 TrkA (recombinant D4-D5 domain of murine TrkA receptor) (mouse, UniProt Q3UFB7 193-413).
T1 construct: also called mTrkA Ig1,2
As to the kind of experiment: SPR (Biacore X-100); scFv immobilised on CM5 chip, mouse Ig1,2 TrkA injected. The method, then:
(§1) The antibodies were also shown to be specific for hTrkA and mTrkA by relative binding to the BIACore sensor chips coated with the appropriate antigen. Antibodies were immobilized by ammine coupling to Biosensor CM5 sensorchips (Pharmacia) according to the manufacturers instructions. Anti-TrkA scFv proteins were diluted at 20-50 μg/ml in suitable pre-concentration buffer (at least 2 pH unit below the pI of the scFv in order to get a net positive charge), chosen among the Acetate buffers. The scFvs were immobilized at 100 RU to get a low density immobilization. As binder, the recombinant protein consisting of D4-D5 domain of human and murine TrkA receptor (hTrkA Ig1,2 and mTrkA Ig1,2 respectively) were injected over the immobilized scFv with a contact time of 60 seconds and with a dissociation time of 400 seconds and the assay workflow placed 5 serial dilutions of the TrkA Ig1,2 (starting in the micromolar range and diluting 1:2 each time). The regeneration condition were mild (contact time 30 seconds, 10 mM Glycine pH2). On the basis of the resulting sensorgrams, the concentrations of TrkA Ig1,2 were adjusted to optimize, contact time, dissociation time and regeneration. Data were analysed by Bioevaluation Software (see results on Table II and Table III). The quality of the data fitting were checked by the value of Chi² and of the U-value.
(§2) We have carried out surface plasmon resonance (SPR) analyses to determine the binding kinetics of a panel of isolated anti-TrkA scFvs (SEQ ID NOs: 1, 2, 3, 4, 5, 6, 7, 8, 9, 10, 11, 12, 13, 14, 15 and 16). The scFvs were immobilized on a CM5 chip followed by injections at various concentration of human and murine Ig 1,2 TrkA (SEQ ID NO: 78) and mouse Ig1,2 TrkA (SEQ ID NO: 79).
In general terms: Surface plasmon resonance follows binding to a sensor surface in real time, without labels.

Assay [2] concerns the target T2, human p75 immunoadhesin (human; Camelus dromedarius, UniProt P08138 29-250).
T2 construct: extracellular domain; also called hp75-Fc; p75NTR immunoadhesin; not shown: Fc portion (immunoglobulin heavy chain constant region) of IgG2a camel antibody (Camelus dromedarius)
T2 sequence (looked up): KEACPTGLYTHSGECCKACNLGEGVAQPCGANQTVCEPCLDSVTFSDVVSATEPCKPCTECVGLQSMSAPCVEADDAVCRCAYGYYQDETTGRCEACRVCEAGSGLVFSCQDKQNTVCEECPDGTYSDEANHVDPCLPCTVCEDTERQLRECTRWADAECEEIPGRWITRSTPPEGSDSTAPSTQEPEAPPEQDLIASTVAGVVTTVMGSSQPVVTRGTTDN
As to the kind of experiment: specificity ELISA, antigens coated at 2 µg/mL, scFv at 50 ug/mL (upper panel) and 5 ug/mL (lower panel), OD 450 nm. The method, then:
(§3) FIG. 3. Specificity ELISA of isolated anti-TrkA scFvs versus human TrkA immunoadhesin (hTrkA-Fc), human TrkB immunoadhesins (hTrkB-Fc), human TrkC immunoadhesins (hTrkC-Fc) and human p75 immunoadhesins (hp75-Fc). Human antigens were coated at 2 μg/mL. Anti-TrkA scFvs were used at 50 μg/mL (upper panel) and/or 5 μg/mL (lower panel). The mean absorbance at 450 nm of the experiments performed in duplicate wells is shown with SD indicated by the bars.
A general note: An ELISA detects its analyte on a solid surface through an enzyme-linked reagent.

The target in assay [3] is T3, human TrkA receptor (native, on TF-1 cells) (human, UniProt P04629 33-796).
T3 construct: also called TF1 expressing TrkA receptor; TF-1 cell line expressing human TrkA receptor
The assay can be described thus: chip-based flow cytometry (Agilent Bioanalyzer 2100) on TF-1 cells expressing human TrkA; scFv at 5 µg/ml per paragraph 159. The method, then:
FIG. 5. FACS analysis performed with Bioanalyzer 2100. A cell fluid chip-based fluorescent cytometric assay that runs on Bioanalyzer 2100 (Agilent) for fast characterization of small population cell phenotypes was assessed. The assay determines the expression of specific cell surface markers. In this experiment, the specificity of scFvs on TF-1 cell line expressing human TrkA receptor was assessed. Six samples can be analyzed on each chip in one automated process. Results were in good agreement with conventional flow cytometry in quantisation.
10⁶ cells/sample=tot: 6×10⁶ cells are first centrifuged at 350 g for 5 min at room temperature (RT) and wash with 12 ml of Staining Buffer (SB) at RT. The pellet was resuspended in 3 ml of SB at 4° C. and aliquot 0.5 ml of suspension in 1.5 ml conical tubes. Cells were centrifuged again at 350 g for 5 min at 4° C. and the pellet was resuspended in 1 ml HBSS at 4° C. 125 μl 16% p-formaldehyde (final conc 1.7%) was added into each tube and then the sample was incubated for 10 min at 4° C. on tube rotator. After 10 minutes, 75 μl of 10% detergent solution-Tween 20 (final conc 0.6%) was added and the samples were then incubated for 10 min at 4° C. on tube rotator. Samples were then washed once with FACS Buffer (0.8 ml/sample) at 4° C. and then centrifuged at 350 g for 5 min at 4° C. Cells were resuspended with 80 μl/sample of FACS Buffer. 20 μl of a 5× primary antibody solution were added (final concentration of scFvs is 5 μg/ml). After incubation for 1 hour at 4° C. on tube rotator samples were washed with FACS Buffer (0.5 ml/sample) at 4° C. and then centrifuged 5 min at 350 g at 4° C. Cells were resuspended with 80 μl/sample of FACS Buffer. 20 μl of a 5× secondary antibody solution were added. Final concentration of mouse anti-V5 antibody is 0.20 μg/ml. The samples were incubated for 1 hour at 4° C. on tube rotator. After incubation for 1 hour at 4° C. on tube rotator samples were washed with FACS Buffer (0.5 ml/sample) at 4° C. and then centrifuged 5 min at 350 g at 4° C. Cells were resuspended with 80 μl/sample of FACS Buffer. 20 μl of a 5× tertiary antibody solution were added. Final concentration of anti-mouse IgG-Cy5 is 4 μg/ml (1:250 diluted). The samples were incubated for 1 hour at 4° C. on tube rotator.

Assay [4] concerns the target T4, human Ig1,2 TrkA (recombinant D4-D5 domain of human TrkA receptor) (human, UniProt P04629 191-392).
T4 construct: also called hTrkA Ig1,2; TrkA Ig1,2
T4 chain: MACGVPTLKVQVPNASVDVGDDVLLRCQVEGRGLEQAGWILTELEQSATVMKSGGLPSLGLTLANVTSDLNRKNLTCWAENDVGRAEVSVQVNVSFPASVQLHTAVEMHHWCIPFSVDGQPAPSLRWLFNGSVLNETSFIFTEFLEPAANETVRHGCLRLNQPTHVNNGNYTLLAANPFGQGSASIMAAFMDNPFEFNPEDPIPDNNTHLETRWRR
The assay can be described thus: SPR (Biacore X-100); scFv immobilised on CM5 chip, human Ig1,2 TrkA injected. The procedure:
as §1, §2

Assay [5] concerns the target T5, human TrkC immunoadhesin (human; Camelus dromedarius, UniProt Q16288 32-429).
T5 construct: extracellular domain; also called hTrkC-Fc; TrkC immunoadhesins; not shown: Fc portion (immunoglobulin heavy chain constant region) of IgG2a camel antibody (Camelus dromedarius)
As to the kind of experiment: specificity ELISA, antigens coated at 2 µg/mL, scFv at 50 ug/mL (upper panel) and 5 ug/mL (lower panel), OD 450 nm. The procedure:
as §3

The target of assay [6] is T6, human TrkB immunoadhesin (human; Camelus dromedarius, UniProt Q16620 32-430).
T6 construct: extracellular domain; also called hTrkB-Fc; TrkB immunoadhesins; not shown: Fc portion (immunoglobulin heavy chain constant region) of IgG2a camel antibody (Camelus dromedarius)
Described as above. The method, then:
as §3

T3 sequence (P04629 33-796 limits assumed): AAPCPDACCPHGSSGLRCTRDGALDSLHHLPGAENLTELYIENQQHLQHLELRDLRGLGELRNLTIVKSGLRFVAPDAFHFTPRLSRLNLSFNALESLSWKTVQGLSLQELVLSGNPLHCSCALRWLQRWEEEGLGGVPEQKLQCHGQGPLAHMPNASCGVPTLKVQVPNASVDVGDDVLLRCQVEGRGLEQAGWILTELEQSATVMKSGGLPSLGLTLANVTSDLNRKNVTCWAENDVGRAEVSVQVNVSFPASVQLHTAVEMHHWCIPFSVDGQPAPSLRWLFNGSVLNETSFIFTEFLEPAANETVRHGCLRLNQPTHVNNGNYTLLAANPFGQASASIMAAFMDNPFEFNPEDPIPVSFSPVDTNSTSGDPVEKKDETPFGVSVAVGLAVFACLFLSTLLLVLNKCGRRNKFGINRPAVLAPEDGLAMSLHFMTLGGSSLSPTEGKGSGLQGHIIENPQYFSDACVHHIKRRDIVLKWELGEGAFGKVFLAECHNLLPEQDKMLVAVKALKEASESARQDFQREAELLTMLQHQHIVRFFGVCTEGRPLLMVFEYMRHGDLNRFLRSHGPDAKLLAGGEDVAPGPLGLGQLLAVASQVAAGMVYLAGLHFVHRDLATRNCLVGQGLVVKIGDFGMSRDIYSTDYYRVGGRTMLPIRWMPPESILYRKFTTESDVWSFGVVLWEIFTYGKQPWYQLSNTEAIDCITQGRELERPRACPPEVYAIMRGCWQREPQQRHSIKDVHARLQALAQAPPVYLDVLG
T1 sequence (Q3UFB7 other isoform, or with tags, fused parts or gaps limits assumed): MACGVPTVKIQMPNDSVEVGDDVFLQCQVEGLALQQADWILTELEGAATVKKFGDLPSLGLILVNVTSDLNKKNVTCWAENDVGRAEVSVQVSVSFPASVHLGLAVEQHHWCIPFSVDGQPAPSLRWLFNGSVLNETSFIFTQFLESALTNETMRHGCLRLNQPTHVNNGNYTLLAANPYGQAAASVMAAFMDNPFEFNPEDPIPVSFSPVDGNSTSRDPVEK
T6 sequence (Q16620 32-430): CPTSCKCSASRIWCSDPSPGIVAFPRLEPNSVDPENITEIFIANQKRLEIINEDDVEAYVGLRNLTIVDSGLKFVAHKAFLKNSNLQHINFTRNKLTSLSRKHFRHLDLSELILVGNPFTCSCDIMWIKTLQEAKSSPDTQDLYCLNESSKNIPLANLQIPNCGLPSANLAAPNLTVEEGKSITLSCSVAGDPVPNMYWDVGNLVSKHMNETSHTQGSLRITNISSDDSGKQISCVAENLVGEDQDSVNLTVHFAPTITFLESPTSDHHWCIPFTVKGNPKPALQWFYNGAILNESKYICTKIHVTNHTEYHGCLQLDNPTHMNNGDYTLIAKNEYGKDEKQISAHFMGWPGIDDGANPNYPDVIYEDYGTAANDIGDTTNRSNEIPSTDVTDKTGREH

B1: anti-TrkA scFv CRB0036 (scFv)
scFv: DIVMTQAAPSVPVTPGESVSISCRSSKSLLHSSGITSLYWYLQRPGQSPQLPIYRMSSLASGVPDRFSVSGSGTAFTLRISRVEAEDVGVYYCMQHLEYPLTFGAGTKLELKRSGGSTSGSGKPGSGEGSSGTQVQLQQSGAELLKPGASVKISCKATGYTFSNYWIEWVKQRPGHGLEWIGEILPGSGSAHYSEKFKDKATFTADTSSNTAYMQLSSLTSEDSAVYFCTRSPPNPGYWGQGTSVTVSS
notes: From mSPLINT selection
Turning to B1, the Kd is 1.1 nM in assay [1] and 13.7 nM in assay [4]. Besides, the koff in assay [1] was 7.07e-06 s⁻¹; in assay [4], 3.75e-05 s⁻¹. The kon is 6440 M⁻¹ s⁻¹ in assay [1] and 2730 M⁻¹ s⁻¹ in assay [4]. For the same molecule, the binding result is listed as “no binding (tested: 50 ug/mL)” in assay [2] and “binds” in assay [3].

B2: anti-TrkA scFv CRB0069 (scFv)
scFv: QPGLTQPPSASGTPGQRVTISCTGSSSNVGAGYTVHWYQQLPGTAPTLLIYDNNNRPSGVPDRFSGSRSGTSASLAITGLRAEDEADYYCQSYDRSRVYVFGTGTKLTVLSGGSTSGSGKPGSGEGSSGTQVQLQQSGPGLVKPSQTLSLTCAISGDSVSSNSAAWNWIRQSPSRGLERLGRTYYRSKWYNDYAESVKSRIIINSGTSKNQFSLHLNSVTPEDTAVYYCGRAKDGWYDAFDIWGQGTTVTVSS
notes: From hSPLINT_09 selection
Consider B2, for which, in assay [1], the Kd amounted to 1.67 nM, the koff is 1.02e-05 s⁻¹ and the kon is 6120 M⁻¹ s⁻¹. For the same molecule, the binding result in assay [3] was “binds”. Further, in assay [4], the Kd turned out to be 5.7 nM, the koff was determined as 3.57e-05 s⁻¹ and the kon turned out to be 6270 M⁻¹ s⁻¹.

B3: anti-TrkA scFv CRB0089 (scFv)
scFv: QTVVTQEPSVSGAPGQRVTISCTGSSSIIGAGYEVHWYQHLPGTAPKLLIYDSINRPSGVPDRFSGSKSGTSASLAITGLQAEDEADYYCQSSAIFGGGTKLTVLSGGSTSGSGKPGSGEGSSGTQVQLQESGPGLVKPSQTLSLTCAISGDSVSSNSAAWNWIRQSPSRGLEWLGRTFHRSRWYNEYPVSVRSRITINPDTSNNQFTLQLNSVTPDDTAVYYCARAPVAGLTFDIWGQGTMVTVSS
notes: From hSPLINT_09 selection
For the molecule B3, the Kd in assay [1] turned out to be 14.2 nM; in assay [4], 16.9 nM. Besides, the koff in assay [1] came out at 3.19e-05 s⁻¹; in assay [4], 7.76e-05 s⁻¹. Besides, the kon in assay [1] came out at 2250 M⁻¹ s⁻¹; in assay [4], 4600 M⁻¹ s⁻¹. In addition, the figures for the binding result in assay [5], in assay [2] and in assay [3] were “no binding (tested: 50 ug/mL)”, “no binding (tested: 50 ug/mL)” and “binds”, respectively.

B4: anti-TrkA scFv CRB0084 (scFv)
scFv: QPVLTQPPSVSVAPRQTATITCGGNYIGSKSVHWYQQKPGQDPVLVVNDDSDRPSGIPERFSGSNSANTATLTISGVEAGDEADYYCQVWDSSTEPVVFGGGTKLTVLSGGSTSGSGKPGSGEGSSGTQVQLQQWGAGLLRPSETLSLTCTVSGGSFSDSYWTWIRQSPGKGLEWIGENNHRGSTNYSPTLRSRLSISIDSSKNQFSLKLSSVTAADTAVYYCARVPYRLRSRIFDVWGQGTMVTVSS
notes: From hSPLINT_09 selection
For B4, the Kd in assay [1] came to 2.18 nM; in assay [4], 1700 nM. The koff turned out to be 2.33e-05 s⁻¹ in assay [1] and 0.0163 s⁻¹ in assay [4]. Besides, the figures for the kon in assay [1] and in assay [4] were 10700 M⁻¹ s⁻¹ and 9600 M⁻¹ s⁻¹, respectively. For the same molecule, the binding result was “no binding (tested: 50 ug/mL)” in assay [5], “no binding (tested: 50 ug/mL)” in assay [6] and “binds” in assay [3].

B5: anti-TrkA scFv CRB0082 (scFv)
scFv: SYVLTQPPSVSVAPGTTARLSCEATKIGSQRLHWYQQKPGQAPVMVISFDSDRPSGIPDRFSGSRSGNTATLTISGVEAGDEADYYCNSRDSSGYHLVFGGGTKLTVLSGGSTSGSGKPGSGEGSSGTQVQLQQSGPGLVKPSQTLSLTCAISGDSVSSFTVAWNWIRQSPSRGLERLGRTYRRSKDYAEYMRSRLTINADTSKNQLSLQLDSVTPDDTAVYYCARGQNSAFDLWGQRTMVTVSS
notes: From hSPLINT_09 selection
Regarding B5, in assay [1], the Kd stood at 131 nM, the koff was found to be 0.000344 s⁻¹ and the kon stood at 2630 M⁻¹ s⁻¹. Also, in assay [4], the Kd was 42.1 nM, the koff was determined as 8.79e-05 s⁻¹ and the kon turned out to be 2090 M⁻¹ s⁻¹.
